Tests used:
[1] = biological target: T1, Ext4 PD-L1-GFP, a PD-L1 mutant with residues 284-290 deleted (Homo sapiens, UniProt Q9NZQ7, residues 284–290 deleted); assay: immunostaining of cells or tissue; confocal immunofluorescence microscopy of HEK293 cells expressing PD-L1-GFP constructs, stained with r22C3 and r28-8; protocol in Supplementary Appendix B; conditions: one partner purified
T1 construct: The label 'Ext4' is probably a slip for 'Int4'; source: HEK293 cells, expressed, on cells

[2] = biological target: T2, His-tagged extracellular domain of PD-L1 (residues 19-238) (Homo sapiens (Human)., UniProt Q9NZQ7, N-linked glycosylation (sites N35, N192, N200, N219)); assay: SPR; Biacore T200, 25 °C, PBS pH 7.4 with 0.05% Tween-20; 90 RU r22C3 captured, PD-L1 extracellular domain injected at 110 nM, then r28-8 injected over the r22C3-PD-L1 complex (top 33 nM, two-fold dilutions); 1:1 Langmuir model; conditions: both partners purified
T2 construct: programmed cell death ligand-1 (PD-L1), human, extracellular domain, residues 19-238 of the 290-residue protein; The limits are stated for the SPR experiment; also called PD-L1 extracellular domain; recombinant PD-L1; source: provided by MedImmune, Cambridge, UK; purified
T2 sequence (Q9NZQ7 19-238): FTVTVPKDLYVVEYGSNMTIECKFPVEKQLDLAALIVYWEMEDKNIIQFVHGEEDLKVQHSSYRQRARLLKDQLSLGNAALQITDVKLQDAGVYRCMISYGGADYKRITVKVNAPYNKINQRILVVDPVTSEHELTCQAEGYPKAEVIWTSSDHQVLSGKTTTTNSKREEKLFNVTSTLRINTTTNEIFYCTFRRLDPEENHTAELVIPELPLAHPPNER

[3] = biological target: T2, His-tagged extracellular domain of …; assay: SPR; Biacore T200, 25 °C, PBS (10 mM sodium phosphate, 154 mM NaCl, pH 7.4) with 0.05% Tween-20; 90 RU r22C3 captured on anti-mouse antibody on a C1 chip; PD-L1 extracellular domain injected (top 110 nM, two-fold dilutions); 1:1 Langmuir model; conditions: both partners purified

T1 sequence (Q9NZQ7 19-283, stated change not applied): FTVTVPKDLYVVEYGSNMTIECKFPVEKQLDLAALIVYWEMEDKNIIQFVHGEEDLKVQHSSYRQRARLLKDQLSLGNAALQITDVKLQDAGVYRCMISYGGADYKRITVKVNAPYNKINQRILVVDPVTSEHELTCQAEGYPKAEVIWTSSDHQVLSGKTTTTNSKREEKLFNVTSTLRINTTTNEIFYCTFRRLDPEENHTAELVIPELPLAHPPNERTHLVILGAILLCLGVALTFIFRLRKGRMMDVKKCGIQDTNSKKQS

B1: recombinant 28-8 antibody (r28-8), rabbit IgG (antibody, V domains shown)
VH: CLSVEESGGRLVTPGTPLTLTCTASGFTITNYHMFWVRQAPGKGLEWIGVITSSGIGSSSTTYYATWAKGRFTISKTSTTVNLRITSPTTEDTATYFCARDYFTNTYYALDIWGPGTLVTVSS
VL: ALVMTQTPSSTSTAVGGTVTIKCQASQSISVYLAWYQQKPGQPPKLLIYSASTLASGVPSRFKGSRSGTEYTLTISGVQREDAATYYCLGSAGSFGGGTEVVVK
notes: Rabbit IgG; source: CHO-EBNA-GS cells, transient expression, purified
Question: Does B1 bind [1]?
Answer: binds

Question: What about the Kd [2] of the same binder?
Answer: < 0.04 nM

B2: recombinant 22C3 antibody (r22C3), mouse IgG (antibody, V domains shown)
VH: QVHLQQSGAELAKPGASVKMSCKASGYTFTSYWIHWIKQRPGQGLEWIGYINPSSGYHEYNQKFIDKATLTADRSSSTAYMHLTSLTSEDSAVYYCARSGWLIHGDYYFDFWGQGTTLVTVS
VL: DIVMSQSPSSLAVSAGEKVTMTCKSSQSLLHTSTRKNYLAWYQQKPGQSPKLLIYWASTRESGVPDRFTGSGSGTDFTLTISSVQAEDLAVYYCKQSYDVVTFGAGTKLEIK
notes: Mouse IgG; source: CHO-EBNA-GS cells, transient expression, purified
Question: Which Kd [3] does the source give for B2 here?
Answer: < 0.04 nM

Question: Does B2 bind [1]?
Answer: binds

Reference: PMC8075905, “Mapping the binding sites of antibodies utilized in programmed cell death ligand-1 predictive immunohistochemical assays for use with immuno-oncology therapies” (Modern Pathology, 2019)
